In patent US20210246166A1 (Bayer, published 2021):
Bridge positions count the residues as written; N and C are the ends. Square brackets hold non-standard residues; d marks the D form. Ends that are not written are not given here. Oic = O=C(O)[C@@H]1C[C@@H]2CCCC[C@@H]2N1; NMeI = CC[C@H](C)[C@H](NC)C(=O)O; tBuAla = CC(C)(C)C[C@H](N)C(=O)O; Pen = CC(C)(S)[C@H](N)C(=O)O; NMeC = CN[C@@H](CS)C(=O)O; NMeA = CN[C@@H](C)C(=O)O; Aib = CC(C)(N)C(=O)O; Sar = CNCC(=O)O

Tests used:
[1] = molecular target: recombinant human MASP2 active protease (amino acids 297-686, C-terminal His Tag) (human, UniProt O00187 297-686); assay: cell-based or functional assay
Sequence of recombinant human MASP2 active protease (amino acids 297-686, C-terminal His Tag) (O00187 other isoform, or with tags, fused parts or gaps limits assumed): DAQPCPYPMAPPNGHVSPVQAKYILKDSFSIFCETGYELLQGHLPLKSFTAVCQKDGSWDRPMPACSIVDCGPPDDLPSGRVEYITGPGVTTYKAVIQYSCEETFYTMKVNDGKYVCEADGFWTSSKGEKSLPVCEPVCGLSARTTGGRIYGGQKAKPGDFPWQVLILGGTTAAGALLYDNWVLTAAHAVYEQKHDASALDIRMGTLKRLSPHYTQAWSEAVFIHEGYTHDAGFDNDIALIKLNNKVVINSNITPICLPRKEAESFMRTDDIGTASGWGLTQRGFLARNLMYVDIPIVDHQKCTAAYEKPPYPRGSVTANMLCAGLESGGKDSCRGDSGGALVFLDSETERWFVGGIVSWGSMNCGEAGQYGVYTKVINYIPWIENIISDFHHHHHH

[2] = molecular target: T1, recombinant human MASP1 active protease (amino acids 297-699, C-terminal His Tag) (human, UniProt P48740 297-699); assay: cell-based or functional assay
T1 sequence: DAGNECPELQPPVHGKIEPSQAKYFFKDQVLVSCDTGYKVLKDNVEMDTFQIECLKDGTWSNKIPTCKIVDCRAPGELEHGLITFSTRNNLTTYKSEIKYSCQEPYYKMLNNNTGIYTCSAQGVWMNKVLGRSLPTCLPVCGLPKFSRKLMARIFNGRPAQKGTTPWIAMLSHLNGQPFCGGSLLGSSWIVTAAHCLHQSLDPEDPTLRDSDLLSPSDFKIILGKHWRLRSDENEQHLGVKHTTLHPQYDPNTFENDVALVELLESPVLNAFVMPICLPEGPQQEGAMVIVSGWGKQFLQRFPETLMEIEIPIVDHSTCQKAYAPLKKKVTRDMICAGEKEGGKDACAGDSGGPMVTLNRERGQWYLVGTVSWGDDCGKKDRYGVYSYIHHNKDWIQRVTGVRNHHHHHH

B1: ((N-Me)A)-IC+SRSLP-(Oic)-I-(Pen)+IPD-NH2 (peptide)
peptide: [NMeA]ICSRSLP[Oic]I[Pen]IPD-NH2
modifications: disulfide 3-11; N-terminus assumed
SMILES: CC[C@H](C)[C@H](NC(=O)[C@H](C)NC)C(=O)N[C@H]1CSSC(C)(C)[C@@H](C(=O)N[C@H](C(=O)N2CCC[C@H]2C(=O)N[C@@H](CC(=O)O)C(N)=O)[C@@H](C)CC)NC(=O)[C@H]([C@@H](C)CC)NC(=O)[C@@H]2C[C@@H]3CCCC[C@@H]3N2C(=O)[C@@H]2CCCN2C(=O)[C@H](CC(C)C)NC(=O)[C@H](CO)NC(=O)[C@H](CCCNC(=N)N)NC(=O)[C@H](CO)NC1=O
[1]
  human MASP2 IC50: 145 nM
[2]
  human MASP1 IC50: 2.8 nM

B2: AIC+SRS-((tBu)A)-P-(Oic)-I-(Pen)+IPD-NH2 (peptide)
peptide: AICSRS[tBuAla]P[Oic]I[Pen]IPD-NH2
modifications: disulfide 3-11; N-terminus assumed
SMILES: CC[C@H](C)[C@H](NC(=O)[C@H](C)N)C(=O)N[C@H]1CSSC(C)(C)[C@@H](C(=O)N[C@H](C(=O)N2CCC[C@H]2C(=O)N[C@@H](CC(=O)O)C(N)=O)[C@@H](C)CC)NC(=O)[C@H]([C@@H](C)CC)NC(=O)[C@@H]2C[C@@H]3CCCC[C@@H]3N2C(=O)[C@@H]2CCCN2C(=O)[C@H](CC(C)(C)C)NC(=O)[C@H](CO)NC(=O)[C@H](CCCNC(=N)N)NC(=O)[C@H](CO)NC1=O
[1]
  human MASP2 IC50: 130 nM
[2]
  human MASP1 IC50: 2.8 nM

B3: PIC+SRS-((tBu)A)-PPI-(Pen)+IPD-NH2 (peptide)
peptide: PICSRS[tBuAla]PPI[Pen]IPD-NH2
modifications: disulfide 3-11; N-terminus assumed
SMILES: CC[C@H](C)[C@H](NC(=O)[C@@H]1CCCN1)C(=O)N[C@H]1CSSC(C)(C)[C@@H](C(=O)N[C@H](C(=O)N2CCC[C@H]2C(=O)N[C@@H](CC(=O)O)C(N)=O)[C@@H](C)CC)NC(=O)[C@H]([C@@H](C)CC)NC(=O)[C@@H]2CCCN2C(=O)[C@@H]2CCCN2C(=O)[C@H](CC(C)(C)C)NC(=O)[C@H](CO)NC(=O)[C@H](CCCNC(=N)N)NC(=O)[C@H](CO)NC1=O
[1]
  human MASP2 IC50: 50 nM
[2]
  human MASP1 IC50: 1.14 nM

## [Sar]ICSRSLP[Oic]I[Pen]IP-NH2 (disulfide 3-11; also: TFA salt) [((N-Me)G)-IC+SRSLP-(Oic)-I-(Pen)+IP-NH2]
[1]
  human MASP2 IC50: 69.6 nM
[2]
  human MASP1 IC50: 2.9 nM

B4: ((N-Me)A)-IC+SRSLP-(Oic)-I-(Pen)+IP-OH (peptide)
peptide: [NMeA]ICSRSLP[Oic]I[Pen]IP-OH
modifications: disulfide 3-11; N-terminus assumed
SMILES: CC[C@H](C)[C@H](NC(=O)[C@H](C)NC)C(=O)N[C@H]1CSSC(C)(C)[C@@H](C(=O)N[C@H](C(=O)N2CCC[C@H]2C(=O)O)[C@@H](C)CC)NC(=O)[C@H]([C@@H](C)CC)NC(=O)[C@@H]2C[C@@H]3CCCC[C@@H]3N2C(=O)[C@@H]2CCCN2C(=O)[C@H](CC(C)C)NC(=O)[C@H](CO)NC(=O)[C@H](CCCNC(=N)N)NC(=O)[C@H](CO)NC1=O
[1]
  human MASP2 IC50: 200 nM
[2]
  human MASP1 IC50: 2.9 nM

B5: AIC+SRSLP-(Oic)-I-(Pen)+IP-OH (peptide)
peptide: AICSRSLP[Oic]I[Pen]IP-OH
modifications: disulfide 3-11; N-terminus assumed
SMILES: CC[C@H](C)[C@H](NC(=O)[C@H](C)N)C(=O)N[C@H]1CSSC(C)(C)[C@@H](C(=O)N[C@H](C(=O)N2CCC[C@H]2C(=O)O)[C@@H](C)CC)NC(=O)[C@H]([C@@H](C)CC)NC(=O)[C@@H]2C[C@@H]3CCCC[C@@H]3N2C(=O)[C@@H]2CCCN2C(=O)[C@H](CC(C)C)NC(=O)[C@H](CO)NC(=O)[C@H](CCCNC(=N)N)NC(=O)[C@H](CO)NC1=O
[1]
  human MASP2 IC50: 160 nM
[2]
  human MASP1 IC50: 2.9 nM

B6: AIC+SRSLP-(Oic)-I-(Pen)+IPE-OH (peptide)
peptide: AICSRSLP[Oic]I[Pen]IPE-OH
modifications: disulfide 3-11; N-terminus assumed
SMILES: CC[C@H](C)[C@H](NC(=O)[C@H](C)N)C(=O)N[C@H]1CSSC(C)(C)[C@@H](C(=O)N[C@H](C(=O)N2CCC[C@H]2C(=O)N[C@@H](CCC(=O)O)C(=O)O)[C@@H](C)CC)NC(=O)[C@H]([C@@H](C)CC)NC(=O)[C@@H]2C[C@@H]3CCCC[C@@H]3N2C(=O)[C@@H]2CCCN2C(=O)[C@H](CC(C)C)NC(=O)[C@H](CO)NC(=O)[C@H](CCCNC(=N)N)NC(=O)[C@H](CO)NC1=O
[1]
  human MASP2 IC50: 130 nM
[2]
  human MASP1 IC50: 2.9 nM

## [Sar]ICSRSLP[Oic]I[Pen]IP[PEG4‑CH2CO2H (15 atoms)]-NH2 (disulfide 3-11) [((N-Me)G)-IC+SRSLP-(Oic)-I-(Pen)+IP-(PEG4-CH2CO2H (15 atoms))-NH2]
[1]
  human MASP2 IC50: 89 nM
[2]
  human MASP1 IC50: 2.9 nM

## AICSRS[tBuAla]PP[(2S)‑2‑(Amino)‑2‑((1S,3R)-3-hydroxycyclohexyl)acetic acid][NMeC]IPD-NH2 (disulfide 3-11) [AIC+SRS-((tBu)A)-PP-((2S)-2-(Amino)-2-[(1S,3R)-3-hydroxycyclohexyl]acetic acid)-((N-Me)C)+IPD-NH2]
[1]
  human MASP2 IC50: 330 nM
[2]
  human MASP1 IC50: 3 nM

B7: AIC+SRSLP-(Oic)-I-(Pen)+I-OH (peptide)
peptide: AICSRSLP[Oic]I[Pen]I-OH
modifications: disulfide 3-11; N-terminus assumed
SMILES: CC[C@H](C)[C@H](NC(=O)[C@H]1NC(=O)[C@H]([C@@H](C)CC)NC(=O)[C@@H]2C[C@@H]3CCCC[C@@H]3N2C(=O)[C@@H]2CCCN2C(=O)[C@H](CC(C)C)NC(=O)[C@H](CO)NC(=O)[C@H](CCCNC(=N)N)NC(=O)[C@H](CO)NC(=O)[C@@H](NC(=O)[C@@H](NC(=O)[C@H](C)N)[C@@H](C)CC)CSSC1(C)C)C(=O)O
[1]
  human MASP2 IC50: 360 nM
[2]
  human MASP1 IC50: 3 nM

B8: AIC+SRSLP-(Oic)-I-(Pen)+IPQ-OH (peptide)
peptide: AICSRSLP[Oic]I[Pen]IPQ-OH
modifications: disulfide 3-11; N-terminus assumed
SMILES: CC[C@H](C)[C@H](NC(=O)[C@H](C)N)C(=O)N[C@H]1CSSC(C)(C)[C@@H](C(=O)N[C@H](C(=O)N2CCC[C@H]2C(=O)N[C@@H](CCC(N)=O)C(=O)O)[C@@H](C)CC)NC(=O)[C@H]([C@@H](C)CC)NC(=O)[C@@H]2C[C@@H]3CCCC[C@@H]3N2C(=O)[C@@H]2CCCN2C(=O)[C@H](CC(C)C)NC(=O)[C@H](CO)NC(=O)[C@H](CCCNC(=N)N)NC(=O)[C@H](CO)NC1=O
[1]
  human MASP2 IC50: 140 nM
[2]
  human MASP1 IC50: 3 nM

B9: (Aib)-IC+SRS-((tBu)A)-PPI-(Pen)+IPD-NH2 (peptide)
peptide: [Aib]ICSRS[tBuAla]PPI[Pen]IPD-NH2
modifications: disulfide 3-11; N-terminus assumed
SMILES: CC[C@H](C)[C@@H]1NC(=O)[C@@H]2CCCN2C(=O)[C@@H]2CCCN2C(=O)[C@H](CC(C)(C)C)NC(=O)[C@H](CO)NC(=O)[C@H](CCCNC(=N)N)NC(=O)[C@H](CO)NC(=O)[C@@H](NC(=O)[C@@H](NC(=O)C(C)(C)N)[C@@H](C)CC)CSSC(C)(C)[C@@H](C(=O)N[C@H](C(=O)N2CCC[C@H]2C(=O)N[C@@H](CC(=O)O)C(N)=O)[C@@H](C)CC)NC1=O
[1]
  human MASP2 IC50: 36 nM
[2]
  human MASP1 IC50: 1.19 nM

B10: A-((N-Me)I)-C+SRS-((tBu)A)-P-(Oic)-I-((N-Me)C)+IPD-NH2 (peptide)
peptide: A[NMeI]CSRS[tBuAla]P[Oic]I[NMeC]IPD-NH2
modifications: disulfide 3-11; N-terminus assumed
SMILES: CC[C@H](C)[C@@H]1NC(=O)[C@@H]2C[C@@H]3CCCC[C@@H]3N2C(=O)[C@@H]2CCCN2C(=O)[C@H](CC(C)(C)C)NC(=O)[C@H](CO)NC(=O)[C@H](CCCNC(=N)N)NC(=O)[C@H](CO)NC(=O)[C@@H](NC(=O)[C@H]([C@@H](C)CC)N(C)C(=O)[C@H](C)N)CSSC[C@@H](C(=O)N[C@H](C(=O)N2CCC[C@H]2C(=O)N[C@@H](CC(=O)O)C(N)=O)[C@@H](C)CC)N(C)C1=O
[1]
  human MASP2 IC50: 590 nM
[2]
  human MASP1 IC50: 3.1 nM

B11: AIC+SRS-((t-Bu)A)-PPIC+ID-OH (peptide)
peptide: AICSRS[tBuAla]PPICID-OH
modifications: disulfide 3-11; N-terminus assumed
SMILES: CC[C@H](C)[C@H](NC(=O)[C@H](C)N)C(=O)N[C@H]1CSSC[C@@H](C(=O)N[C@H](C(=O)N[C@@H](CC(=O)O)C(=O)O)[C@@H](C)CC)NC(=O)[C@H]([C@@H](C)CC)NC(=O)[C@@H]2CCCN2C(=O)[C@@H]2CCCN2C(=O)[C@H](CC(C)(C)C)NC(=O)[C@H](CO)NC(=O)[C@H](CCCNC(=N)N)NC(=O)[C@H](CO)NC1=O
[1]
  human MASP2 IC50: 83 nM
[2]
  human MASP1 IC50: 3.1 nM

B12: AIC+SRSLP-(Oic)-I-(Pen)+IPE-NH2 (peptide)
peptide: AICSRSLP[Oic]I[Pen]IPE-NH2
modifications: disulfide 3-11; N-terminus assumed
SMILES: CC[C@H](C)[C@H](NC(=O)[C@H](C)N)C(=O)N[C@H]1CSSC(C)(C)[C@@H](C(=O)N[C@H](C(=O)N2CCC[C@H]2C(=O)N[C@@H](CCC(=O)O)C(N)=O)[C@@H](C)CC)NC(=O)[C@H]([C@@H](C)CC)NC(=O)[C@@H]2C[C@@H]3CCCC[C@@H]3N2C(=O)[C@@H]2CCCN2C(=O)[C@H](CC(C)C)NC(=O)[C@H](CO)NC(=O)[C@H](CCCNC(=N)N)NC(=O)[C@H](CO)NC1=O
[1]
  human MASP2 IC50: 160 nM
[2]
  human MASP1 IC50: 3.1 nM

B13: HIC+SRS-((tBu)A)-PPI-(Pen)+IPD-NH2 (peptide)
peptide: HICSRS[tBuAla]PPI[Pen]IPD-NH2
modifications: disulfide 3-11; N-terminus assumed
SMILES: CC[C@H](C)[C@H](NC(=O)[C@@H](N)Cc1c[nH]cn1)C(=O)N[C@H]1CSSC(C)(C)[C@@H](C(=O)N[C@H](C(=O)N2CCC[C@H]2C(=O)N[C@@H](CC(=O)O)C(N)=O)[C@@H](C)CC)NC(=O)[C@H]([C@@H](C)CC)NC(=O)[C@@H]2CCCN2C(=O)[C@@H]2CCCN2C(=O)[C@H](CC(C)(C)C)NC(=O)[C@H](CO)NC(=O)[C@H](CCCNC(=N)N)NC(=O)[C@H](CO)NC1=O
[1]
  human MASP2 IC50: 75 nM
[2]
  human MASP1 IC50: 3.2 nM
